B1: CPEB3 Ribozyme (parent)
chain: UAACAGGGGGCCACAGCAGAAGCGUUCACGUCGCAGCCCCUGUCAGAUUCUGGUGAAUCUGCGAAUUCUGCUGUAUAUCUC

Variants of: B1
Assay: self-cleavage, relative activity (ratio to wild type); higher = more cleavage; in vitro, sequencing
Summary of the method: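 Relative activity compares each variant's cleaved/total read fraction with that of the unmutated ribozyme. To get these fractions, barcoded CPEB3 ribozyme libraries from rounds of error-prone PCR were transcribed with T7 RNA polymerase for 5 hours at 37°C and then given 15 min of DNase I treatment before EDTA was added. The RNAs were reverse transcribed with template switching and sequenced on Illumina, and DNA sequencing linked barcodes to variants. A minimum of 5 reads applied, and three batches were averaged.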

Variant | self-cleavage
UAACAGGGGGCCACAGCAGAAGCGUUCGCGUCGCAGCCCCUGCCAGAUUCUGGUGAAUCUGCGAAUUCUGCUGUAUAUCUC [A28G U43C] | 0.35
UAACAGGGGGCCACAGCAGAAGCGUUCGCGUCGCAGCCCCUGUCAGAUUCUGGUGAAUCUGCGAAUUCUGCCGUAUAUCUC [A28G U72C] | 0.67
UAACAGGGGGCCACAGCAGAAGCGUUCGCGUCGCAGCCCCUGUCAGAUUCUGGUGAAUCUGCGAAUUCUGCGGUAUAUCUC [A28G U72G] | 0.56
UAACAGGGGGCCACAGCAGAAGCGUUCGCGUCGCAGCCCCUGUCAGAUUCUGGUGAAUCUGCGAAUUCUGCAGUAUAUCUC [A28G U72A] | 0.3
UAACAGGGGGCCACAGCAGAAGCGUUCGCGUCGCAGCCCCUGUCAGAUUCUGGUGAAUCUGCGAAAUCUGCUGUAUAUCUC [A28G U66A] | 0.31
UAACAGGGGGCCACAGCAGAAGCGUUCGCGUCGCAGCCCCUGUCAGAUUCUGGUGAAUCUGCGAACUCUGCUGUAUAUCUC [A28G U66C] | 0.26
UAACAGGGGGCCACAGCAGAAGCGUUCGCGUCGCAGCCCCUGUCAGAUUCUGGUGAAUCUGCGAAGUCUGCUGUAUAUCUC [A28G U66G] | 0.2
UAACAGGGGGCCACAGCAGAAGCGUUCGCGUCGCAGCCCCUGUCAGAUUCUGGUGAAGCUGCGAAUUCUGCUGUAUAUCUC [A28G U58G] | 0.46
UAACAGGGGGCCACAGCAGAAGCGUUCGCGUCGCAGCCCCUGUCAGAUUCUGGUGAACCUGCGAAUUCUGCUGUAUAUCUC [A28G U58C] | 0.27
UAACAGGGGGCCACAGCAGAAGCGUUCGCGUCGCAGCCCCUGUCAGAUUCUGGUGAAACUGCGAAUUCUGCUGUAUAUCUC [A28G U58A] | 0.24
UAACAGGGGGCCACAGCAGAAGCGUUCGCGUCGCAGCCCCUGUCAGAUUCUGGUGAAUCUGCGAAUGCUGCUGUAUAUCUC [A28G U67G] | 0.17
UAACAGGGGGCCACAGCAGAAGCGUUCGCGUCGCAGCCCCUGUCAGAUUCUGGUGAAUCUGCGAAUCCUGCUGUAUAUCUC [A28G U67C] | 0.17
UAACAGGGGGCCACAGCAGAAGCGUUCGCGUCGCAGCCCCUGUCAGAUUCUGGUGAAUCUGCGAAUACUGCUGUAUAUCUC [A28G U67A] | 0.27
UAACAGGGGGCCACAGCAGAAGCGUUCUCGUCGCAGCCCCUGUCGGAUUCUGGUGAAUCUGCGAAUUCUGCUGUAUAUCUC [A28U A45G] | 0.47
UAACAGGGGGCCACAGCAGAAGCGUUCUCGUCGCAGCCCCUGUCUGAUUCUGGUGAAUCUGCGAAUUCUGCUGUAUAUCUC [A28U A45U] | 0.4
UAACAGGGGGCCACAGCAGAAGCGUUCUCGUCGCAGCCCCUGUCCGAUUCUGGUGAAUCUGCGAAUUCUGCUGUAUAUCUC [A28U A45C] | 0.25
UAACAGGGGGCCACAGCAGAAGCGUUCUCGUCGCAGCCCCUGUCAGAUUCUGGUGAAUCUGCGCAUUCUGCUGUAUAUCUC [A28U A64C] | 0.34

Variant | self-cleavage
UAACAGGGGGCCACAGCAGAAGCGUUCUCGUCGCAGCCCCUGUCAGAUUCUGGUGAAUCUGCGGAUUCUGCUGUAUAUCUC [A28U A64G] | 0.63
UAACAGGGGGCCACAGCAGAAGCGUUCUCGUCGCAGCCCCUGUCAGAUUCUGGUGAAUCUGCGAAUUCUGCUGUAUAUCUC [A28U] | 0.81
UAACAGGGGGCCACAGCAGAAGCGUUCUCGUCGCAGCCCCUGUCAGUUUCUGGUGAAUCUGCGAAUUCUGCUGUAUAUCUC [A28U A47U] | 0.67
UAACAGGGGGCCACAGCAGAAGCGUUCUCGUCGCAGCCCCUGUCAGGUUCUGGUGAAUCUGCGAAUUCUGCUGUAUAUCUC [A28U A47G] | 0.89
UAACAGGGGGCCACAGCAGAAGCGUUCUCGUCGCUGCCCCUGUCAGAUUCUGGUGAAUCUGCGAAUUCUGCUGUAUAUCUC [A28U A35U] | 0.35
UAACAGGGGGCCACAGCAGAAGCGUUCUCGUCGCCGCCCCUGUCAGAUUCUGGUGAAUCUGCGAAUUCUGCUGUAUAUCUC [A28U A35C] | 0.47
UAACAGGGGGCCACAGCAGAAGCGUUCUCGUCGCGGCCCCUGUCAGAUUCUGGUGAAUCUGCGAAUUCUGCUGUAUAUCUC [A28U A35G] | 1.22
UAACAGGGGGCCACAGCAGAAGCGUUCGCGUCGCAGCCCCUGUCAGAUUCUGGUGAAUCUGCGAAUUCUGCUUUAUAUCUC [A28G G73U] | 1.26
UAACAGGGGGCCACAGCAGAAGCGUUCGCGUCGCAGCCCCUGUCAGAUUCUGGUGAAUCUGCGAAUUCUGCUCUAUAUCUC [A28G G73C] | 1.29
UAACAGGGGGCCACAGCAGAAGCGUUCGCGUCGCAGCCCCUGUCAGAUUCUGGUGAAUCUGCGAAUUCUGCUAUAUAUCUC [A28G G73A] | 1.16
UAACAGGGGGCCACAGCAGAAGCGUUCUCGUCGCAGCCCCUGUCAGAUUCUGGUGAUUCUGCGAAUUCUGCUGUAUAUCUC [A28U A57U] | 0.5
UAACAGGGGGCCACAGCAGAAGCGUUCUCGUCGCAGCCCCUGUCAGAUUCUGGUGAGUCUGCGAAUUCUGCUGUAUAUCUC [A28U A57G] | 0.64
UAACAGGGGGCCACAGCAGAAGCGUUCGCGUCGCAGCCCCUGUCAGAUUCUGGUGAAUCUGCGAAUUCUGCUGUAUAUCAC [A28G U80A] | 0.72
UAACAGGGGGCCACAGCAGAAGCGUUCGCGUCGCAGCCCCUGUCAGAUUCUGGUGAAUCUGCGAAUUCUGCUGUAUAUCCC [A28G U80C] | 0.81
UAACAGGGGGCCACAGCAGAAGCGUUCGCGUCGCAGCCCCUGUCAGAUUCUGGUGAAUCUGCGAAUUCUGCUGUAUACCUC [A28G U78C] | 0.61
UAACAGGGGGCCACAGCAGAAGCGUUCGCGUCGCAGCCCCUGUCAGAUUCUGGUGAAUCUGCGAAUUCUGCUGUAUAGCUC [A28G U78G] | 0.67
UAACAGGGGGCCACAGCAGAAGCGUUCGCGUCGCAGCCCCUGUCAGAUUCUGGUGAAUCUGCGAAUUCUGCUGUAUAACUC [A28G U78A] | 0.71

From the RNAGym collection of RNA variant scans (doi:10.1093/nar/gkz1192)
